Source: paper PMC9348906 (Science (New York, N.Y.), 2022)
“And” between values parts separate entries of the source, which are not always exact repeats. Equal values may be shown once. Read-outs that look alike come from different tables or passages of the source.

What was measured:
Assay in all cases: SEC-MALS
[1] = molecular target: C. thermophilum coat nup complex (CNC) (C. thermophilum) (UniProt G0S2X1)
[2] = molecular target: the molecule itself
[3] = molecular target: the molecule itself; remark: listed apart in the source

Sequence of C. thermophilum coat nup complex (CNC) (C. thermophilum) (G0S2X1 whole entry, looked up, one chain of several): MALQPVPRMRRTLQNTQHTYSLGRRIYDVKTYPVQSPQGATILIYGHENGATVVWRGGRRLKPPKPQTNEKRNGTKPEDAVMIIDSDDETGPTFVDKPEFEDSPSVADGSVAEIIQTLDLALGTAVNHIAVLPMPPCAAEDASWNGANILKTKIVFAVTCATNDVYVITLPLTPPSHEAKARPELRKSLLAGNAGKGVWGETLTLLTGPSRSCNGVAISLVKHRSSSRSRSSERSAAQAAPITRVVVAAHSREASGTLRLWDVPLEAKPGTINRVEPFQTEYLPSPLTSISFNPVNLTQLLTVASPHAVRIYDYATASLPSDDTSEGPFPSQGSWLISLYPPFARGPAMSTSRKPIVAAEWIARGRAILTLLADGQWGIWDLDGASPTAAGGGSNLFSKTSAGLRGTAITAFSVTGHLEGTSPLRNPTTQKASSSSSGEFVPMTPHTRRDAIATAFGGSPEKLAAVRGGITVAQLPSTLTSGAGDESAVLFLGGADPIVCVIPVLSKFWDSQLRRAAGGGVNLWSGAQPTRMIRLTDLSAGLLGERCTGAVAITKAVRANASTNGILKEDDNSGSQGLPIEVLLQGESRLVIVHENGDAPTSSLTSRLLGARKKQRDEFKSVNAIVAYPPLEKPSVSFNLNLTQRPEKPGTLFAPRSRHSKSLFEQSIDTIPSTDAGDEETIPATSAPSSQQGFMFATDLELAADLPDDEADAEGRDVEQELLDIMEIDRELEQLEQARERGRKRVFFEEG

For “C. thermophilum cytoplasmic filament nup complex (CFNC) (from UniProt G0S4F3 1-882; G0SBS8 1-1481; G0SBQ3 1-678; G0SAK3 1-993)”, the stoichiometry N [1] was 2.

In the case of RWAEDQNSLLKMICQQVEAIKKEMQELKLNS (domain or fragment, human, UniProt P49792 802-832, looked up) [NUP358^OE], the “stoichiometry N” value [2] is reported as 2 and 4.

B1: NUP358^NTD (domain or fragment, human, UniProt P49792 1-752, looked up)
chain: MRRSKADVERYIASVQGSTPSPRQKSMKGFYFAKLYYEAKEYDLAKKYICTYINVQERDPKAHRFLGLLYELEENTDKAVECYRRSVELNPTQKDLVLKIAELLCKNDVTDGRAKYWLERAAKLFPGSPAIYKLKEQLLDCEGEDGWNKLFDLIQSELYVRPDDVHVNIRLVEVYRSTKRLKDAVAHCHEAERNIALRSSLEWNSCVVQTLKEYLESLQCLESDKSDWRATNTDLLLAYANLMLLTLSTRDVQESRELLQSFDSALQSVKSLGGNDELSATFLEMKGHFYMHAGSLLLKMGQHSSNVQWRALSELAALCYLIAFQVPRPKIKLIKGEAGQNLLEMMACDRLSQSGHMLLNLSRGKQDFLKEIVETFANKSGQSALYDALFSSQSPKDTSFLGSDDIGNIDVREPELEDLTRYDVGAIRAHNGSLQHLTWLGLQWNSLPALPGIRKWLKQLFHHLPHETSRLETNAPESICILDLEVFLLGVVYTSHLQLKEKCNSHHSSYQPLCLPLPVCKQLCTERQKSWWDAVCTLIHRKAVPGNVAKLRLLVQHEINTLRAQEKHGLQPALLVHWAECLQKTGSGLNSFYDQREYIGRSVHYWKKVLPLLKIIKKKNSIPEPIDPLFKHFHSVDIQASEIVEYEEDAHITFAILDAVNGNIEDAVTAFESIKSVVSYWNLALIFHRKAEDIENDALSPEEQEECKNYLRKTRDYLIKIIDDSDSNLSVVKKLPVPLESVKEMLNSVMQE
In the case of B1, the “stoichiometry N” value [3] is reported as 2.

B2: NUP358^1–832 (domain or fragment, human, UniProt P49792 1-832, looked up)
chain: MRRSKADVERYIASVQGSTPSPRQKSMKGFYFAKLYYEAKEYDLAKKYICTYINVQERDPKAHRFLGLLYELEENTDKAVECYRRSVELNPTQKDLVLKIAELLCKNDVTDGRAKYWLERAAKLFPGSPAIYKLKEQLLDCEGEDGWNKLFDLIQSELYVRPDDVHVNIRLVEVYRSTKRLKDAVAHCHEAERNIALRSSLEWNSCVVQTLKEYLESLQCLESDKSDWRATNTDLLLAYANLMLLTLSTRDVQESRELLQSFDSALQSVKSLGGNDELSATFLEMKGHFYMHAGSLLLKMGQHSSNVQWRALSELAALCYLIAFQVPRPKIKLIKGEAGQNLLEMMACDRLSQSGHMLLNLSRGKQDFLKEIVETFANKSGQSALYDALFSSQSPKDTSFLGSDDIGNIDVREPELEDLTRYDVGAIRAHNGSLQHLTWLGLQWNSLPALPGIRKWLKQLFHHLPHETSRLETNAPESICILDLEVFLLGVVYTSHLQLKEKCNSHHSSYQPLCLPLPVCKQLCTERQKSWWDAVCTLIHRKAVPGNVAKLRLLVQHEINTLRAQEKHGLQPALLVHWAECLQKTGSGLNSFYDQREYIGRSVHYWKKVLPLLKIIKKKNSIPEPIDPLFKHFHSVDIQASEIVEYEEDAHITFAILDAVNGNIEDAVTAFESIKSVVSYWNLALIFHRKAEDIENDALSPEEQEECKNYLRKTRDYLIKIIDDSDSNLSVVKKLPVPLESVKEMLNSVMQELEDYSEGGPLYKNGSLRNADSEIKHSTPSPTRYSLSPSKSYKYSPKTPPRWAEDQNSLLKMICQQVEAIKKEMQELKLNS
B2 was tested, and the “stoichiometry N” value [2] was 4 and 5.
